{"source": "patent US20090181019A1", "target": "IL-1 receptor (human) (UniProt P14778)", "sequence (P14778 18-569)": "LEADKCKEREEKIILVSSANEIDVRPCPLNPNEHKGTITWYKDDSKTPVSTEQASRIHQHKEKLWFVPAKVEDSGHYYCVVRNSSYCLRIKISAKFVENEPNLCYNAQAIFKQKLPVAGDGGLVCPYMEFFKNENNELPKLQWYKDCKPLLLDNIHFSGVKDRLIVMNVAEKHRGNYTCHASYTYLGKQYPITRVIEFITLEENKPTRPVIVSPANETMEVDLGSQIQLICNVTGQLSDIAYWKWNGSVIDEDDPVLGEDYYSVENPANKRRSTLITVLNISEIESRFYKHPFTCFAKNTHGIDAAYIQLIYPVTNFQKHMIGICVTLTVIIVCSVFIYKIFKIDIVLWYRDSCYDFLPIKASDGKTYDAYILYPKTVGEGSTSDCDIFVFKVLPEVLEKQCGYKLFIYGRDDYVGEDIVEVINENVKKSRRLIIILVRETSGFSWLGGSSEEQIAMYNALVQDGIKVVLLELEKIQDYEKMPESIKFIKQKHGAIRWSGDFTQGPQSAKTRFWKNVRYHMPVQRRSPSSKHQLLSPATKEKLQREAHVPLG", "test": "cell-based or functional assay"}
{"substance": "Kineret® (anakinra) (from UniProt P18510 26-177) (ligand)", "values": [{"measurement": "IC50, inhibition of IL-1β stimulated release of IL-8 in human whole blood (100 pM rhIL-1β, IL-8 ELISA)", "result": 53.4, "unit": "pM"}]}
